The source of these data is the supplement of paper PMC9170038.

In this data set the test system is MS2 coat protein. Briefly: apparent KD of MS2 coat protein; designed switch direction (-1 OFF switch, 1 ON switch): -1; higher = weaker reporter binding. The method, boiled down:
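Normalised cluster fluorescence was curve-fitted, and each design's median over clusters is its apparent KD. Before this, SNAP-549-labelled MS2 coat protein was titrated from 0.7 or 1.5 nM, doubling to 3 µM, over RNA switches transcribed on Illumina chips by stalled E. coli RNA polymerase. Titrations had no input, 200 uM small-molecule ligand, or an oligonucleotide input, and steps lasted 0.8–1.5 h (lowest) to 10–20 min (highest).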

Where [1] appears, read: Eterna round: R95, input ligand: FMN 200 uM.
Where [2] appears, read: Eterna round: R95, input ligand: microRNA oligo, concentration not stated.
[3] abbreviates: Eterna round: R95, input ligand: none.
[4] abbreviates: input ligand: microRNA oligo, concentration not stated.

Take “AAGUAUAGAGGAUAUAGUAGGUACUACAUGAGGAUCACCCAUGUUCUUCAUUACGUAUUUCUAGAAGGCUGAUAAA [EX-5 Malc#26] (puzzle: Exclusion 5)”: the “apparent KD of MS2 coat protein” value is, setting by setting: under setting [1], 484 nM; under setting [2], 174 nM; under setting [3], 268 nM.

Consider “AAGUAUAGAGGAUAUAGUGAGUACUACAUGAGGAUCACCCAUGUUCUUCAAAGCGUACUUCUAGAAGGCUGUUAAA [EX-5 Malc#17] (puzzle: Exclusion 5)”, for which the “apparent KD of MS2 coat protein” value by setting is: under setting [1], 452 nM; under setting [2], 263 nM; under setting [3], 214 nM.

For the sequence “AAGUCGACGGUGAGGAUAUUAGUUGAACGACAGAUUAAGAAGGUACAUGAGGAUCACCCAUGUGGGUAGCGUUG [Brourd's EX4 #78] (Eterna round: R97, puzzle: Brourd's mod of Exclusion 4)”, the “apparent KD of MS2 coat protein” value by setting is: (input ligand: FMN 200 uM) 73.2 nM; (input ligand: none) 80.9 nM.

As for “AAUAAAUAGGAGGAUAUCGUAUCGGAAACGAUACGAGAAGGUCUAACAUGAGGAUCACCCAUGUUCCUCAAUAA [Mat - Exclusion 6 - Eli Mod - D45] (puzzle: Exclusion 6)”, the “apparent KD of MS2 coat protein” value under setting [2] was 39.4 nM.

On to “AAUAACAAGUAAGAUCCUAACAUGAGGAUCACCCAUGUGCUCGUCUUAUAAAGUACUAUCACGAAAGUGAUAGUACA [Sensor 3, v1 - 46] (puzzle: Sensor v3, turn-off variant 1)”, for which the “apparent KD of MS2 coat protein” value came to 36.5 nM under setting [1], 153 nM under setting [2] and 43.1 nM under setting [3].

Regarding “AAUAACAAGUUGAUCCUUCACAUGAGGAUCACCCAUGUGCUCGUCUUGUAAAGUACUAUCACGAAAGUGAUAGUACA (Eterna round: R97, puzzle: Sensor, turn-off variant 1)”, the “apparent KD of MS2 coat protein” value stood at 256 nM (input ligand: FMN 200 uM) and 249 nM (input ligand: none).

With “AAUAACAGAGGAUAUACUAUUUUAUGUAUUUAUUAUUUUGAACAUGAGGAUCACCCAUGUAGAAGGCUGAGUAA [JMF 35] (puzzle: Exclusion 2)”, under setting [2], the “apparent KD of MS2 coat protein” value turned out to be 25.3 nM.

Regarding “AAUAACAGAGGAUAUACUAUUUUAUGUGUUUGUUAUUUUAAACAUGAGGAUCACCCAUGUAGAAGGCUGAAUGA [JMF 56] (puzzle: Exclusion 2)”, the “apparent KD of MS2 coat protein” value under setting [2] amounted to 25 nM.

Turning to “AAUAACAGGCCGAUCCUAAACAUGAGGAUCACCCAUGUGCUCGUCUUGUAAAGUACUAUCACGAAAGUGAUAGUACA [Sensor v3, turn-off variant 1 (MOD of Eli's v1-59 v.2 )] (puzzle: Sensor v3, turn-off variant 1)”, the “apparent KD of MS2 coat protein” value came to 39.9 nM under setting [1], 419 nM under setting [2] and 31.4 nM under setting [3].

As for “AAUAACAUGUUGAUCAAAUACAUGAGGAUCACCCAUGUAAGCUUUUUGUUCGUAGAUUAACACUAAUAAUAAUAAUA [Stov1new/2-B] (Eterna round: R97, puzzle: Sensor, turn-off variant 1)”, the “apparent KD of MS2 coat protein” value reads like this: (input ligand: FMN 200 uM) 15.8 nM; (input ligand: none) 16.7 nM.

For the sequence “AAUAAGUAUGUGAGGAUAUUGAGGAGGAGGAGGGACAAGAAGGCACAUGAGGAUCACCCAUGUAGGAAAGGACG [JR_BMEx4_Sub002] (Eterna round: R97, puzzle: Brourd's mod of Exclusion 4)”, the “apparent KD of MS2 coat protein” value reads like this: (input ligand: FMN 200 uM) 46.9 nM; (input ligand: none) 28 nM.

In the case of “AAUAAGUGAGGAUAUGGAAUAAUAAAUAAAAUAAUAAAUAACCAGAAGGCACAUGAGGAUCACCCAUGUAAUAA [JMF's solution 3] (puzzle: Exclusion 4)”, the “apparent KD of MS2 coat protein” value is 27.4 nM under setting [1], 23.7 nM under setting [2] and 21.4 nM under setting [3].

For the sequence “AAUAAUAAGGAGGAUAUCGUAUCGGAAACGAUACGAGAAGGCCUAACAUGAGGAUCACCCAUGUUCCUCAAUAA [Fiskers Ex 6 - 2] (puzzle: Exclusion 6)”, the “apparent KD of MS2 coat protein” value under setting [1] amounted to 1320 nM, the “apparent KD of MS2 coat protein” value under setting [2] was determined as 297 nM and the “apparent KD of MS2 coat protein” value under setting [3] turned out to be 311 nM.

Regarding “AAUAAUAAGGAGGAUAUCGUAUCGGAAACGAUACGAGAAGGCCUAACAUGAGGAUCACCCAUGUUCCUUAAUAA [Fiskers Ex 6 - 4] (puzzle: Exclusion 6)”, the “apparent KD of MS2 coat protein” value reads like this: under setting [1], 33.3 nM; under setting [2], 22 nM; under setting [3], 18.2 nM.

Consider “AAUAAUAAGGAGGAUAUCGUAUCGGAAACGAUACGAGAAGGUCUAACAUGAGGAUCACCCAUGUUCCUCAAAUA [Mat - Exclusion 6 - Eli Mod - D44] (puzzle: Exclusion 6)”, for which the “apparent KD of MS2 coat protein” value under setting [2] came to 37.1 nM.

Consider “AAUAAUGAGUAGGAUAUCACUAGCGAUAGCUAGUGAGAAGGGCUCACAUGAGGAUCACCCAUGUGUUCCAAUAA [Mod4 Ex6/6-A4 by Brourd] (Eterna round: R97, puzzle: Exclusion 6)”, for which the “apparent KD of MS2 coat protein” value runs as follows: (input ligand: FMN 200 uM) 88.1 nM; (input ligand: none) 31.2 nM.

In the case of “AAUACACAUGAGGAUCACCCAUGUCAGGAUAUGCGCAGACAGACAGACAGACAGACGAGCAGAAGGGAUAGGAA [Excls1-IV] (puzzle: Exclusion 1)”, the “apparent KD of MS2 coat protein” value runs as follows: under setting [1], 54 nM; under setting [2], 67.5 nM; under setting [3], 49.3 nM.

As for “AAUACACAUGAGGAUCACCCAUGUUAGGAUAUGAGCAGACAGACAGACAGACAGACGAUCAGAAGGAAUAGGAA [Excls1-V] (puzzle: Exclusion 1)”, the “apparent KD of MS2 coat protein” value came out at 26.1 nM under setting [1], 25.4 nM under setting [2] and 32.9 nM under setting [3].

For the sequence “AAUAGCAAGCAAGAUCCUAACAUGAGGAUCACCCAUGUGCUCGUCUUGUAAAGUACUAUCACGAAAGUGAUAGUACA [Sensor 3, v1 - 49] (puzzle: Sensor v3, turn-off variant 1)”, the “apparent KD of MS2 coat protein” value was 29.7 nM under setting [1], 211 nM under setting [2] and 31.9 nM under setting [3].

As for “AAUAGCUGAGGAUAUACAUGAGGAUCACCCAUGUAUUAGUAGGCUGGGAAUAAAUCGUGUAGAAGGCAGGAUGA [Ceerge] (puzzle: Exclusion 3)”, under setting [2], the “apparent KD of MS2 coat protein” value is 16.7 nM.

“AAUAGUAAUAAGGAUAUCACUAGCCUCGGCUAGUGAGAAGGUAUUACAUGAGGAUCACCCAUGUGGUCAAUUAA [E6/4-A2] (Eterna round: R97, puzzle: Exclusion 6)”: the “apparent KD of MS2 coat protein” value (input ligand: FMN 200 uM) was 1110 nM and the “apparent KD of MS2 coat protein” value (input ligand: none) came to 1130 nM.

For “AAUCAACAUGAGGAUCACCCAUGUGAGGAUAUACGCAUGCAUGCAUGCAUGCAUGCAAGUAGAAGGCACAAUAC [Design #17] (Eterna round: R97, puzzle: Exclusion 1)”, the “apparent KD of MS2 coat protein” value by setting is: (input ligand: FMN 200 uM) 42 nM; (input ligand: none) 27.9 nM.

As for “AAUCGACAUGAGGAUCACCCAUGUUAGGAUAUGCGGAAUCGGUCAAUCAAUCGAUCAAGCAGAAGGGACGGGUU [Candy Rainbow] (puzzle: Exclusion 1)”, the “apparent KD of MS2 coat protein” value reads like this: under setting [1], 29.1 nM; under setting [2], 27.4 nM; under setting [3], 34.2 nM.

Consider “AAUGACUGAGGAUAUUGUACUGCUGACAUGAGGAUCACCCAUGUAUGCUAACUCGGCCGUCGAGAAGGCAGUCAUG [BotMod 24 - Jieux - Exclusion 5] (Eterna round: R97, puzzle: Exclusion 5)”, for which the “apparent KD of MS2 coat protein” value (input ligand: FMN 200 uM) stood at 18.5 nM and the “apparent KD of MS2 coat protein” value (input ligand: none) amounted to 28 nM.

Consider “AAUGAUUGACGAGGAUAUUGUGUUAGAUCACGACGAGAAGGCGUCUGUCACAUGAGGAUCACCCAUGUGAGCCUUGUGGAUAGA [Ex NG1 #77] (Eterna round: R96, puzzle: Exclusion NG 1)”, for which the “apparent KD of MS2 coat protein” value is, setting by setting: (input ligand: FMN 200 uM) 618 nM; under setting [4], 399 nM; (input ligand: none) 378 nM.

Consider “AAUGCGGACAAAGGAUAUUGCGGUGACCGGCUCGGCGUACCGAGCCUACAUGAGGAUCACCCAUGUAAGAAGGUUGUCGCUAAA [Mat - Exclusion NG 2 - Mod of JL - D74] (Eterna round: R96, puzzle: Exclusion NG 2)”, for which the “apparent KD of MS2 coat protein” value (input ligand: FMN 200 uM) was 43.1 nM, the “apparent KD of MS2 coat protein” value under setting [4] was found to be 13.8 nM and the “apparent KD of MS2 coat protein” value (input ligand: none) came to 17.6 nM.

Consider “AAUGGUAAAGUCAGGAUAUACGUAAAUCGUACUAGGUAGAAGGGACAUGAGGAUCACCCAUGUAUGAUAGUAAA [Ex4 #31] (Eterna round: R97, puzzle: Brourd's mod of Exclusion 4)”, for which the “apparent KD of MS2 coat protein” value (input ligand: FMN 200 uM) is 66 nM and the “apparent KD of MS2 coat protein” value (input ligand: none) stood at 76 nM.

For “AAUGUCUGAGGAUAUCGUUUUUUGUACAUGAGGAUCACCCAUGUCCAAUUUUGUAUAUUACGAGAAGGCAGUGGAA [JR_E5_Sub089] (Eterna round: R96, puzzle: Exclusion 5)”, the “apparent KD of MS2 coat protein” value by setting is: (input ligand: FMN 200 uM) 23.9 nM; under setting [4], 10.7 nM; (input ligand: none) 15 nM.

Turning to “AAUGUCUGAGGAUAUCGUUUUUUGUACAUGAGGAUCACCCAUGUCCAAUUUUGUAUAUUACGAGAAGGCAGUGGAA [JR_E5_Sub089] (puzzle: Exclusion 5)”, the “apparent KD of MS2 coat protein” value under setting [2] stood at 14.6 nM.

For the sequence “AAUUAAGCAAGCAGAUCCCACAUGAGGAUCACCCAUGUGCUCGUCUUAUAAGGUACUGUGACAAAAGUCACGGUACC [Mat - Sensor, turn-off var - Eli Mod - D73] (Eterna round: R97, puzzle: Sensor, turn-off variant 1)”, the “apparent KD of MS2 coat protein” value was determined as 108 nM (input ligand: FMN 200 uM) and 117 nM (input ligand: none).

Regarding “AAUUAAUUAAUUAAUUAAUACAUGAGGAUCACCCAUGUAAUUUAAGAUCCUUAUACAAGCUUUGAUCUCGUCUUAUA [Stov1/5-A1] (Eterna round: R97, puzzle: Sensor, turn-off variant 1)”, the “apparent KD of MS2 coat protein” value stood at 94.5 nM (input ligand: FMN 200 uM) and 106 nM (input ligand: none).
